Values quoted from earlier work, collected in PMC8019513.
pKd: −log10 of the molar value. Read-outs that look alike come from different tables or passages of the source.

Key:
IL-8 (Homo sapiens) [1] = target: IL-8 (Homo sapiens) (UniProt P10145)
IL-8 (Homo sapiens) [2] = target: IL-8 (Homo sapiens) (UniProt P10145); remark: listed apart in the source

IL-8 (Homo sapiens), sequence (P10145 28-99): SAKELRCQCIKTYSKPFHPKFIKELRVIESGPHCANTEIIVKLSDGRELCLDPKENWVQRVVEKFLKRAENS
CXCR1, sequence (P25024 whole entry): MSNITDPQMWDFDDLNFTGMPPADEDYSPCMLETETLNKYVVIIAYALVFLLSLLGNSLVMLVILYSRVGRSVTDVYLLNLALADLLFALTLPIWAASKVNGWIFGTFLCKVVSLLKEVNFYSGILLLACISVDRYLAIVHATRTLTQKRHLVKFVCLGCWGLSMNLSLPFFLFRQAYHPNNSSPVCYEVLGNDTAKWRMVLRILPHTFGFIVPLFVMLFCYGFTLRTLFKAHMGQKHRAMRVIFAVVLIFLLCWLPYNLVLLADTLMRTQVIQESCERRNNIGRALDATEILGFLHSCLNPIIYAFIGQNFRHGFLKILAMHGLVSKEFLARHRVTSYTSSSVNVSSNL
CXCR2, sequence (P25025 whole entry): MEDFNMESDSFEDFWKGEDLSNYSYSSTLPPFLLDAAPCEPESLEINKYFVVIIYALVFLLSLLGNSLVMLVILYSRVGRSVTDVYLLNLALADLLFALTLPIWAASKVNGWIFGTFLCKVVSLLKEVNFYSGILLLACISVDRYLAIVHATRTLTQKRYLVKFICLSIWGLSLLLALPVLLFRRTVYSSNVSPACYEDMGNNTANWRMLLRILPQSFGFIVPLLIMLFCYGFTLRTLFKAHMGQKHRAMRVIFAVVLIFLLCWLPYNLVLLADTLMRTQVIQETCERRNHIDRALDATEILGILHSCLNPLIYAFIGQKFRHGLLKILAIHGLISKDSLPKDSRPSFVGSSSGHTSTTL

CXCR2 (from UniProt P25025)
pKd (IL-8 (Homo sapiens) [1]): 8.40

CXCR1 (from UniProt P25024)
pKd (IL-8 (Homo sapiens) [2]): 8.40
